This is an account of results in patent US20120135931A1.

In series [1] the test system is s-variegin.
Series [2] has as its target human plasma derived thrombin (human), P00734. Nature of the series: cell-based or functional assay.

“recombinant α-thrombin (based on human α-thrombin sequence)”: the “cleavage of s-variegin by thrombin at 24° C. (RP-HPLC), extent at 360 min” value in series [1] was 360 min was needed for ~90% of cleavage.

B1: MH22 (peptide)
peptide: MHKTAPPFDFEAIPEEYLDDES
modifications: not checked
In turn, B1 had a percent inhibition of thrombin amidolytic activity at equimolar concentration in series [2] of 15%.

B2: MH18 (peptide)
peptide: MHKTAPPFDFEAIPEEYL
modifications: not checked
On to B2, for which the percent inhibition of thrombin amidolytic activity at equimolar concentration in series [2] came to 15%.
